Measured values as given in PMC7581431.

Target: Lip-NKD-HisC (human (identical sequence in mouse and human)) (UniProt Q969G9)
Assay: aggregation and co-aggregation assay read by PAGE; purified proteins in 15 mM acetate, 150 mM NaCl, pH 5.0 mixed in different ratios; after 10 min 1 M Tris-HCl pH 8.0 added to 200 mM; after 20 min boiled 10 min in LDS sample buffer; PAGE under denaturing and reducing conditions

Chain of Lip-NKD-HisC (human (identical sequence in mouse and human)) (Q969G9 whole entry): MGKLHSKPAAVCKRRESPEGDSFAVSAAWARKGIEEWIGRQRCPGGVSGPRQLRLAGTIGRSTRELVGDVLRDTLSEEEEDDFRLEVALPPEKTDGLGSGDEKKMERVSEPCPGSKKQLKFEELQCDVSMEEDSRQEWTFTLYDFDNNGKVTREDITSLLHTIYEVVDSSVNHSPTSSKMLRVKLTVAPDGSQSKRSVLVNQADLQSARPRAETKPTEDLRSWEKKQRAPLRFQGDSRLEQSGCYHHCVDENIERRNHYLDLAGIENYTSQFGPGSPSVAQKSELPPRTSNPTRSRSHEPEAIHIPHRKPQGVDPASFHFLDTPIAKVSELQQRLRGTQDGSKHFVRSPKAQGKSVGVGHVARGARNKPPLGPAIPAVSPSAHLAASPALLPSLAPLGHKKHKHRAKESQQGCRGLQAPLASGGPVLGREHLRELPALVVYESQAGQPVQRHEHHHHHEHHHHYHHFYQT

molecules per core (molecules per core): < 4
Binder: KHVHHHYIHHHA (domain or fragment) [MBP-Axin2-HisC]
